Publication PMC9506655, “Comparative structural insight into the unidirectional catalysis of ornithine carbamoyltransferases from Psychrobacter sp. PAMC 21119” (PLoS ONE, 2022)
Each block holds one compound with its values, some of them ahead of it.

Tests used:
[1] = target: anabolic ornithine carbamoyltransferase from Psychrobacter sp. PAMC 21119 (Psychrobacter sp. PAMC 21119); experiment: AUC; sedimentation velocity, 20 mM Tris-HCl pH 8.0, 200 mM NaCl, 20°C, 42,000 RPM, SEDFIT
[2] = target: anabolic ornithine carbamoyltransferase from Psychrobacter sp. PAMC 21119 (Psychrobacter sp. PAMC 21119); experiment: SEC; Superdex 200 10/300 GL, 20 mM Tris-HCl pH 8.0, NaCl 300, 500 and 1,000 mM, protein 1 mg/mL, column calibrated with standards
[3] = target: anabolic ornithine carbamoyltransferase from Psychrobacter sp. PAMC 21119 (Psychrobacter sp. PAMC 21119); experiment: crystal structure; X-ray, molecular replacement; Ps_cOTC at 2.6 Å (0.1 M Tris-HCl pH 8.1, 1.3 M lithium sulfate), Ps_aOTC at 2.2 Å (0.1 M sodium acetate:HCl pH 4.6, 1 M ammonium citrate dibasic)
Ps_cOTC [4] = target: T1, Ps_cOTC (Psychrobacter sp. PAMC 21119, UniProt Z9QBN3KKL3); experiment: label-free thermal shift (Tycho NT.[…], intrinsic fluorescence); type: binding; details: with 50 mM CP (no shift by NVA alone); 20 mM Tris-HCl pH 8.0; 15 min incubation at 295 K
T1 construct: full-length arcB product, N-terminal His6 (pET-28a NdeI) kept; expressed in E. coli BL21(DE3); homotrimer in solution
T1 sequence (Z9QBN3KKL3 1-336): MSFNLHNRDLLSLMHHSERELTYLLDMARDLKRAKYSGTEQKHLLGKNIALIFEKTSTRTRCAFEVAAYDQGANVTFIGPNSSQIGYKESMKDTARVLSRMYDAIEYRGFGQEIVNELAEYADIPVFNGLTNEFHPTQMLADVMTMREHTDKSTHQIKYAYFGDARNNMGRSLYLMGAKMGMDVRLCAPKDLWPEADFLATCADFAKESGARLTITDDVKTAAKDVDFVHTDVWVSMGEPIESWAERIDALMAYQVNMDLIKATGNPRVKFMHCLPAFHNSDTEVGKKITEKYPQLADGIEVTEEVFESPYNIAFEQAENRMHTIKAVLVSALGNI

Ps_aOTC [5] = target: T2, Ps_aOTC (Psychrobacter sp. PAMC 21119, UniProt A0ACD6BAY5); experiment: as above; type: binding; details: with 5 mM CP (no shift by NVA alone); 20 mM Tris-HCl pH 8.0; 15 min incubation at 295 K
T2 construct: full-length argF product, N-terminal His6 (pET-28a) kept; expressed in E. coli BL21(DE3); homotrimer in solution

Ps_cOTC [6] = target: T1, Ps_cOTC; experiment: as above; type: binding; details: apo Tm 71.9 ± 0.0 °C; up to 50 mM CP; 20 mM Tris-HCl pH 8.0; 15 min incubation at 295 K
Ps_aOTC [7] = target: T2, Ps_aOTC; experiment: as above; type: binding; details: apo Tm 53.7 ± 0.4 °C; saturating at 20 mM CP; 20 mM Tris-HCl pH 8.0; 15 min incubation at 295 K
[8] = target: catabolic ornithine carbamoyltransferase from Psychrobacter sp. PAMC 21119 (Psychrobacter sp. PAMC 21119); experiment: AUC; sedimentation velocity, 20 mM Tris-HCl pH 8.0, 200 mM NaCl, 20°C, 42,000 RPM, SEDFIT
[9] = target: catabolic ornithine carbamoyltransferase from Psychrobacter sp. PAMC 21119 (Psychrobacter sp. PAMC 21119); experiment: SEC; Superdex 200 10/300 GL, 20 mM Tris-HCl pH 8.0, NaCl 300, 500 and 1,000 mM, protein 1 mg/mL, column calibrated with standards
[10] = target: catabolic ornithine carbamoyltransferase from Psychrobacter sp. PAMC 21119 (Psychrobacter sp. PAMC 21119); experiment: crystal structure; X-ray, molecular replacement; Ps_cOTC at 2.6 Å (0.1 M Tris-HCl pH 8.1, 1.3 M lithium sulfate), Ps_aOTC at 2.2 Å (0.1 M sodium acetate:HCl pH 4.6, 1 M ammonium citrate dibasic)

T2 sequence (A0ACD6BAY5 entry or part of it): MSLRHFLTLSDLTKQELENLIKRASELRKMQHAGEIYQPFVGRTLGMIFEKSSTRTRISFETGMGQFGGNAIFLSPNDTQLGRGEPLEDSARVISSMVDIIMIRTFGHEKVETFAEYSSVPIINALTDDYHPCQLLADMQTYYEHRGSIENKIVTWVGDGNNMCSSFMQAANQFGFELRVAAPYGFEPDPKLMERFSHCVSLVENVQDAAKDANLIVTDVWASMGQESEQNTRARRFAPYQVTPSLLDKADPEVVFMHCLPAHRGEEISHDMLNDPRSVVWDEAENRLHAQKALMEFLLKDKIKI

stoichiometry N [1]: 3 | stoichiometry N [2]: 3 | stoichiometry N [3]: 3
Compound: anabolic ornithine carbamoyltransferase from Psychrobacter sp. PAMC 21119 (enzyme)

Compound: CCC[C@H](N)C(=O)O [NVA, l-norvaline]
thermal shift (Ps_cOTC [4]): following CP binding, NVA can bind to Ps_cOTC and Ps_aOTC | thermal shift (Ps_aOTC [5]): following CP binding, NVA can bind to Ps_cOTC and Ps_aOTC

ΔT (Ps_cOTC [6]): 1.3 °C | ΔT (Ps_aOTC [7]): 6.5 °C
Compound: NC(=O)OP(=O)(O)O [CP, carbamoyl phosphate]

stoichiometry N [8]: 3 | stoichiometry N [9]: 3 | stoichiometry N [10]: 3
Compound: catabolic ornithine carbamoyltransferase from Psychrobacter sp. PAMC 21119 (enzyme)
